Test results published in US20220403043A1 (YEDA RESEARCH AND DEVELOPMENT, published 2022).
Blank lines part the entries; values can stand above or below the binder they belong to.

Legend:
[1] = biological target: T1, recombinant mouse CD11c (R&D Systems) (mouse, UniProt Q9QXH4 20-1116); test: ELISA titration on coated recombinant mouse CD11c (FIG. 4B)
T1 construct: extracellular domain; Bought protein; also called recombinant CD11c
T1 sequence (looked up): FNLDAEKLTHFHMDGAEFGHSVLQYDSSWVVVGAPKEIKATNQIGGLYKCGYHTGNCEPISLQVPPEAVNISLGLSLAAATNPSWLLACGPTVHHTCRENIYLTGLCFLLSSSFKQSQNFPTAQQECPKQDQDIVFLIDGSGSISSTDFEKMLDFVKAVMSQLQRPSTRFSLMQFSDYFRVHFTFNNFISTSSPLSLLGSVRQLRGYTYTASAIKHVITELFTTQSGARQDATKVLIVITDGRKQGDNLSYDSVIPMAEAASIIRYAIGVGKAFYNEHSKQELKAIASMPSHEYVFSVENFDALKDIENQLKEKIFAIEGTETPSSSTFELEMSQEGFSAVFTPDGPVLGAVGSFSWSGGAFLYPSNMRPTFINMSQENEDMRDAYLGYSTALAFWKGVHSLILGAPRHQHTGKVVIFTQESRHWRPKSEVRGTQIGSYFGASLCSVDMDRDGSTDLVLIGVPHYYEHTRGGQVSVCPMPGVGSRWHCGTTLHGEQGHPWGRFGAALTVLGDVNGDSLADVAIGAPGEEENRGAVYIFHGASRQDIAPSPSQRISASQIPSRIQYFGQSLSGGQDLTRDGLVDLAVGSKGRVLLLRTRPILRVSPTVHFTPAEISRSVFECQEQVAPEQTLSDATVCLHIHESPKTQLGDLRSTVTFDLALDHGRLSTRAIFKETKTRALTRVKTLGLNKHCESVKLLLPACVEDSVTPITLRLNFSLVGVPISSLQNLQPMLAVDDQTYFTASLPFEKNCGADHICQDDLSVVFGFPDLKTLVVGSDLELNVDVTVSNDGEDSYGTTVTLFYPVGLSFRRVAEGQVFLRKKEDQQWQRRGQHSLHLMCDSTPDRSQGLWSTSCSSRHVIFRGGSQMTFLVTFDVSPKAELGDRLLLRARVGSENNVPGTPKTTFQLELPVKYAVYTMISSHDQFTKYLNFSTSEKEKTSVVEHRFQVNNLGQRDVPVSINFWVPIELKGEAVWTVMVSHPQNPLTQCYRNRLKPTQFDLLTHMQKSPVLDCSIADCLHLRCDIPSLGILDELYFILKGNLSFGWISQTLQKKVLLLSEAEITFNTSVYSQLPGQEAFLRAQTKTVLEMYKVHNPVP
Experimental: (§1) All sequential steps were performed at room temperature. After being washed, the plates were blocked for 1 hr with 1×PBS with 2% Bovine serum Albumin and were subsequently incubated for 1 hr with serially diluted IgGs (1:5 consecutive dilutions in 1×PBS with 2% Bovine serum Albumin). For dual binding ELISA assay, plates were incubated for 1 hr with biotinylated human CD40 (Acrobiosystems). After washing, plates were incubated for 1 hr with horseradish peroxidase-conjugated anti-human IgG (Jackson ImmunoResearch) or with horseradish peroxidase-conjugated Streptavidin (Biolegend). Detection was performed using a one component substrate solution (TMB) and reactions stopped with the addition of 0.18 M sulphuric acid. Absorbance at 450 nm was immediately recorded using a SpectraMax Plus spectrophotometer (Molecular Devices), and background absorbance from negative control samples was subtracted.

[2] = biological target: T2, recombinant human DEC-205 (Sino Biological), extracellular domain (human, UniProt O60449 28-1666); test: ELISA titration on coated recombinant human DEC-205 (FIG. 4B)
T2 construct: extracellular domain; Bought protein
Experimental: as §1

[3] = biological target: T2, recombinant human DEC-205 (Sino …); test: simultaneous binding ELISA (FIG. 4A-D)
Experimental: as §1

[4] = biological target: T3, biotinylated human CD40 (Acrobiosystems) (human, UniProt P25942 21-193, biotinylated (site not stated)); test: simultaneous binding ELISA (FIG. 4A-D)
T3 construct: also called huCD40
Experimental: as §1

[5] = biological target: T4, recombinant human CD40 (Sino Biological), extracellular domain (human, UniProt P25942 21-193); test: ELISA titration on coated recombinant huCD40 (FIG. 4A)
T4 construct: also called huCD40; hCD40
Experimental: as §1

recombinant hFcγRIIB = biological target: T5, recombinant hFcγRIIB (human, UniProt P31994 43-217, limits assumed); test: ELISA on recombinant hFcγRIIB (FIG. 9B)
T5 construct: construct not described; also called human FcγRIIB
T5 sequence (looked up): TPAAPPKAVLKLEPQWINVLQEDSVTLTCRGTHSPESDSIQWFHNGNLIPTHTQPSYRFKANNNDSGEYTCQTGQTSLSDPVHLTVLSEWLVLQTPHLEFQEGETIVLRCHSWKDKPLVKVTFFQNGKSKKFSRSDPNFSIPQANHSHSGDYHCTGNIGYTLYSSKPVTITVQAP

T2 sequence (O60449 28-1666): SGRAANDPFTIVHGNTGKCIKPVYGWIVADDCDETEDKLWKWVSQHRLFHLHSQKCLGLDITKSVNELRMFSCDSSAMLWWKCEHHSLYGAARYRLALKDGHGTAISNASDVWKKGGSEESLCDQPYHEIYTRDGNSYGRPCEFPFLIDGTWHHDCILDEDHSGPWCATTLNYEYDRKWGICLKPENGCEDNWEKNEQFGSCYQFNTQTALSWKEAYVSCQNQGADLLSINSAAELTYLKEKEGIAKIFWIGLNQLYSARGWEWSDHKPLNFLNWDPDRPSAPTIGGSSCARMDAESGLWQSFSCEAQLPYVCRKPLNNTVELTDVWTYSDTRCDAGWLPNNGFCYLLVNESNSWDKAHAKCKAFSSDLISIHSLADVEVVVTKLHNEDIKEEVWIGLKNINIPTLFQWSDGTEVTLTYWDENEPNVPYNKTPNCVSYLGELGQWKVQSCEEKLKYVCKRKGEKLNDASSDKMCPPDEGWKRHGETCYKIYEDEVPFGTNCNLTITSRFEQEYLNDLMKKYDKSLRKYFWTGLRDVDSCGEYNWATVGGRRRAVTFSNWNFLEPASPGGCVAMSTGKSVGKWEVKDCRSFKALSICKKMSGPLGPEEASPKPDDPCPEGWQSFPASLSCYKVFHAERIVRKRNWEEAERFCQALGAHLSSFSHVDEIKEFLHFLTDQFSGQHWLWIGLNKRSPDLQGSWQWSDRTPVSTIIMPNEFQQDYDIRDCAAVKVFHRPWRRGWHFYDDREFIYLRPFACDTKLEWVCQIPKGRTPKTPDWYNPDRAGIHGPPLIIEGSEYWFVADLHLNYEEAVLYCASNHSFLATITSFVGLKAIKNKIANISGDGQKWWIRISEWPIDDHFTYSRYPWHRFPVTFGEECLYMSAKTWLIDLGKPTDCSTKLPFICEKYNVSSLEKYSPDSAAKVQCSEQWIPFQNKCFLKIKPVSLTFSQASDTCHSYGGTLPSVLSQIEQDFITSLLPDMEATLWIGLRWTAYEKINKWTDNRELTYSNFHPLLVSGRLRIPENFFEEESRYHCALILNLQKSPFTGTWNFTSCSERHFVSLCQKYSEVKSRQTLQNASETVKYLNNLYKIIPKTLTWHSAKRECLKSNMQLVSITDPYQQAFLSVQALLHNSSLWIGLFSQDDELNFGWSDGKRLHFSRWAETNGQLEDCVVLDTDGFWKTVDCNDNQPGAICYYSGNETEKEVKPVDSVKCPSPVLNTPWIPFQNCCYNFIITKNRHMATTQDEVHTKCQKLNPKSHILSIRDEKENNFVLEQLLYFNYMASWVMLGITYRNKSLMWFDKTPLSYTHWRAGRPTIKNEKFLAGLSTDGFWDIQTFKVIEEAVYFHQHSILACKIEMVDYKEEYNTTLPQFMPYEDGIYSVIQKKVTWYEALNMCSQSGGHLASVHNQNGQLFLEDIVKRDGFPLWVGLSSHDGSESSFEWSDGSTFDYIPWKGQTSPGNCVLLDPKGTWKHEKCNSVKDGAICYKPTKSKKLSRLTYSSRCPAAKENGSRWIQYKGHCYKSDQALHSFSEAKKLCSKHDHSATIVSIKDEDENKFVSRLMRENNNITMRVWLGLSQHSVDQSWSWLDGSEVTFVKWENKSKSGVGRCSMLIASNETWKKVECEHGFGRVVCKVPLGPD
T4 sequence (P25942 21-193 limits assumed): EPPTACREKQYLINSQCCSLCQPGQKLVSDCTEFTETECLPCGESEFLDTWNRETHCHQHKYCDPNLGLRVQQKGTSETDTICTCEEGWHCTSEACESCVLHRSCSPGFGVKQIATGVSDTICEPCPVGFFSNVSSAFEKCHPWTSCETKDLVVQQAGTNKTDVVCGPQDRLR
T3 sequence (P25942 21-193 limits assumed): as above

binding result [1]: no binding
binding result [2]: no binding
B1: anti-CD40 (2141) monospecific Ab (antibody, V domains shown)
VH: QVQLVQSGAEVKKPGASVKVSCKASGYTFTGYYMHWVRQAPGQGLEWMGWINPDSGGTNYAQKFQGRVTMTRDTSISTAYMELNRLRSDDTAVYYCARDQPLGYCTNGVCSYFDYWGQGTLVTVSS
VL: DIQMTQSPSSVSASVGDRVTITCRASQGIYSWLAWYQQKPGKAPNLLIYTASTLQSGVPSRFSGSGSGTDFTLTISSLQPEDFATYYCQQANIFPLTFGGGTKVEIKR
notes: 2141 variable regions cloned on human IgG1 / human kappa backbones; also called clone 21.4.1; CD40 mAb

binding result [3]: binds
binding result [4]: binds
binding result [5]: binds
B2: anti-CD40/DEC-205 bispecific Ab (2141/HD-109) (bispecific antibody)
VH 1: not shown
VL 1: DIQMTQSPSSVSASVGDRVTITCRASQGIYSWLAWYQQKPGKAPNLLIYTASTLQSGVPSRFSGSGSGTDFTLTISSLQPEDFATYYCQQANIFPLTFGGGTKVEIKRTVAAPSVFIFPPSDEQLKSGTASVVCLLNNFYPREAKVQWKVDNALQSGNSQESVTEQDSKDSTYSLSSTLTLSKADYEKHKVYACEVTHQGLSSPVTKSFNRGEC
VH 2: QVQLTESGPGLVAPSQSLSITCSVSGFSLTNYAINWVRQPPGKGLEWLGIIWTGGGTNYNSTLKSRLSISKDNSKSQVFLKMNSLQTDDTARYYCARVSHDYFYGSSPYYYGMDYWGQGTSVTVSS
VL 2: DIQMNQSPSSLSASLGDTITITCHASQNINVWLSWYQQKPGNIPKLLIYKVSNLHTGVPSRFSGSGSGTGFTLTISSLQPEDIATYYCQQGQSYPWTFGGGTKLEIK
notes: Whole human IgG1 bispecific of four chains; Knobs-into-holes: Y349C/T366S/L368A/Y407V on the anti-DC arm and S354C/T366W on the anti-CD40 arm; One arm is in CrossMab CH1-CL format

binding result (recombinant hFcγRIIB): binds
B3: CD40/CD11c-V11 (bispecific antibody, human IgG1)
heavy 1: not shown
light 1: B2 VL 1
heavy 2: EVQLVEKGGGLVQPGKSLKLSCAASGFTFSEYWMNWVRQAPGKGLEWVGVIKYKYSNYATEYAESVKGRFTISRDDSKSSVYLQMNNLRAEDTAIYYCARTWENWYFDFWGQGTQVTVSSASVAAPSVFIFPPSDEQLKSGTASVVCLLNNFYPREAKVQWKVDNALQSGNSQESVTEQDSKDSTYSLSSTLTLSKADYEKHKVYACEVTHQGLSSPVTKSFNRGECDRSEPKSCDKTHTCPPCPAPELLGDDSVFLFPPKPKDTLMISRTPEVTCVVVDVSDEDGEVKFNWYVDGVEVHNAKTKPREEQYNSTYRVVSVLTVLHQDWLNGKEYKCKVSNKALPRPIEKTISKAKGQPREPQVCTLPPSREEMTKNQVSLSCAVKGFYPSDIAVEWESNGQPENNYKTTPPVLDSDGSFFLVSKLTVDKSRWQQGNVFSCSVMHEALHNHYTQKSLSLSPGKSAWSHPQFEK
light 2: DIQMTQSPSSLPASLGDRVTIHCQASQDISNYLTWYQQKPGKAPKLLIYETNKLADGVPSRFSGSGSGRDYSFTISSLESEDVGSYYCQHYYDYPRTFGPGTKLDLKSSASTKGPSVFPLAPSSKSTSGGTAALGCLVKDYFPEPVTVSWNSGALTSGVHTFPAVLQSSGLYSLSSVVTVPSSSLGTQTYICNVNHKPSNTKVDKKVEPKSC
notes: Human IgG1 Fc with V11 (G237D/P238D/H268D/P271G/A330R); also called anti-CD40/CD11c bsAb hIgG1-V11; IgG1-V11; copies: 1 + 1 + 1 + 1

binding result (recombinant hFcγRIIB): binds
B4: CD40/DEC-205-V11 (bispecific antibody, human IgG1)
heavy 1: not shown
light 1: B2 VL 1
heavy 2: QVQLTESGPGLVAPSQSLSITCSVSGFSLTNYAINWVRQPPGKGLEWLGIIWTGGGTNYNSTLKSRLSISKDNSKSQVFLKMNSLQTDDTARYYCARVSHDYFYGSSPYYYGMDYWGQGTSVTVSSASVAAPSVFIFPPSDEQLKSGTASVVCLLNNFYPREAKVQWKVDNALQSGNSQESVTEQDSKDSTYSLSSTLTLSKADYEKHKVYACEVTHQGLSSPVTKSFNRGECDRSEPKSCDKTHTCPPCPAPELLGDDSVFLFPPKPKDTLMISRTPEVTCVVVDVSDEDGEVKFNWYVDGVEVHNAKTKPREEQYNSTYRVVSVLTVLHQDWLNGKEYKCKVSNKALPRPIEKTISKAKGQPREPQVCTLPPSREEMTKNQVSLSCAVKGFYPSDIAVEWESNGQPENNYKTTPPVLDSDGSFFLVSKLTVDKSRWQQGNVFSCSVMHEALHNHYTQKSLSLSPGKSAWSHPQFEK
light 2: DIQMNQSPSSLSASLGDTITITCHASQNINVWLSWYQQKPGNIPKLLIYKVSNLHTGVPSRFSGSGSGTGFTLTISSLQPEDIATYYCQQGQSYPWTFGGGTKLEIKSSASTKGPSVFPLAPSSKSTSGGTAALGCLVKDYFPEPVTVSWNSGALTSGVHTFPAVLQSSGLYSLSSVVTVPSSSLGTQTYICNVNHKPSNTKVDKKVEPKSC
notes: Human IgG1 Fc with V11 (G237D/P238D/H268D/P271G/A330R); also called IgG1-V11; copies: 1 + 1 + 1 + 1

binding result [2]: binds
B5: anti-DEC-205 (HD109) monospecific Ab (antibody, V domains shown)
VH: B2 VH 2
VL: B2 VL 2
